Results from patent EP4772538A1.

Target: CD3D-CD3E-mFc (human; mouse)
Assay: SPR, Biacore T200, method of Section 3.1; affinity for CD3D-CD3E-mFc

Kd: 1.08 nM
koff: 0.00028 s⁻¹
kon: 258000 M⁻¹ s⁻¹
Substance: TCR/CD3 bispecific molecule IMC-C103C (control bifunctional molecule)
